Laboratory results taken from patent US20260167959A1, “APTAZYME-BASED REGULATABLE GENE EXPRESSION SYSTEMS” (REJUVENATE BIO INC, priority 2022, published 2026).

B1: RA468 (nucleic acid)
DNA: GCGCGTCCTGGATTCGCGGAAACGCGTACATCCAGCCGAGAATACCAGCATCGTCTTGATGCCCTTGGAAGTCTCGTGACGAGTCCCAAATAGGACGAAACGCGC
modifications: expressed or natural sequence; listed as DNA, chemistry not fully specified
B2: RA469 (nucleic acid)
DNA: GCGAGAATACCAGCATCGTCTTGATGCCCTTGGAAGTCTCGCGCGTCCTGGATTCGCGGAAACGCGTACATCCAGCTGACGAGTCCCAAATAGGACGAAACGCGC
modifications: expressed or natural sequence
B3: RA470 (nucleic acid)
DNA: GCGCGTCCTGGATTCGCGGAAACCGAGAATACCAGCATCGTCTTGATGCCCTTGGAAGTCTCGGCGTACATCCAGCTGACGAGTCCCAAATAGGACGAAACGCGC
modifications: expressed or natural sequence
B4: RA471 (nucleic acid)
DNA: GCGCGTCCTGGATTCGCGGAAACGCGTACATCCAGCTGACGAGTCCCAAATAGGACCGAGAATACCAGCATCGTCTTGATGCCCTTGGAAGTCTCGGAAACGCGC
modifications: expressed or natural sequence
B5: RA472 (nucleic acid)
DNA: GCGCGTCCTGGATTCGCGGAAACGCGTACATCCAGCTGACGAGTCCCAAATAGAGAATACCAGCATCGTCTTGATGCCCTTGGAAGTCTCGGACGAAACGCGC
modifications: expressed or natural sequence
B6: RA473 (nucleic acid)
DNA: GCGCGTCCTGGATTCGCGGAAACGCGTACATCCAGCTGACGAGTCCCAAATAGTGATACCAGCATCGTCTTGATGCCCTTGGCAGCACTAGGACGAAACGCGC
modifications: expressed or natural sequence
B7: RA474 (nucleic acid)
DNA: GCGCGTCCTGGATTCGCGGAAACGCGTACATCCAGCTGACGAGTCCCAAATAGGACGAAACGCGCGGAATACCAGCATCGTCTTGATGCCCTTGGAAGTCCGC
modifications: expressed or natural sequence
B8: RA475 (nucleic acid)
DNA: GCGCGTCCTGGATTCGCGGAAACGCGTACATCCAGCTGACGAGTCCCAAATAGGACGAAACGCGAGAATACCAGCATCGTCTTGATGCCCTTGGAAGTCTCGC
modifications: chemistry not given here
B9: RA476 (nucleic acid)
DNA: GCGCGTCCTGGATTCGCGGAAACGCGTACATCCAGCTGACGAGTCCCAAATAGGACGAAAAGAATACCAGCATCGTCTTGATGCCCTTGGAAGTCTCGCGC
modifications: expressed or natural sequence
B10: RA046 (nucleic acid)
DNA: GCGCGTCCTGGATTCGCGGAAACGCGTACATCCAGCTGACGAGTCCGGAATACCAGCATCGTCTTGATGCCCTTGGAAGTCCGCCAAATAGGACGAAACGCGC
modifications: expressed or natural sequence
B11: RA004: exemplary aptazyme of the T3H48 aptazyme variant library (nucleic acid)
DNA: GCGCGTCCTGGATTCGCGGAAACGCGTACATCCAGCTGACGAGTCCCAAATAGGCCGGAATACCAGCATCGTCTTGATGCCCTTGGAAGTCCGGACGAAACGCGC
modifications: expressed or natural sequence
notes: exemplary aptazyme of the T3H48 aptazyme variant library
B12: RA047 (nucleic acid)
DNA: GCGCGTCCTGGATTCGCGGAAACGCGTACATCCAGCTGACGAGTCCCAGGAATACCAGCATCGTCTTGATGCCCTTGGAAGTCCAATAGGACGAAACGCGC
modifications: expressed or natural sequence
B13: RA048 (nucleic acid)
DNA: GCGCGTCCTGGATTCGCGGAAACGCGTACATCCAGCTGACGCGAGAATACCAGCATCGTCTTGATGCCCTTGGAAGTCTCGAGTCCCAAATAGGACGAAACGCGC
modifications: expressed or natural sequence
B14: RA049 (nucleic acid)
DNA: GCGCGTCCTGGATTCGCGGAAACGCGTACATAGAATACCAGCATCGTCTTGATGCCCTTGGAAGTCTCCAGCTGACGAGTCCCAAATAGGACGAAACGCGC
modifications: expressed or natural sequence
B15: RA050 (nucleic acid)
DNA: GCGCGTCCTGGATTCGCGGAAACGCGTACATCCAGCTGACGAGAATACCAGCATCGTCTTGATGCCCTTGGAAGTCTCGCGAGTCCCAAATAGGACGAAACGCGC
modifications: expressed or natural sequence
B16: RA051 (nucleic acid)
DNA: GCGCGTCCTGGATTCGCGGAAACGCGTACATCCAGCTGACGAGTCCCAAATAGGACGAAACCGAGAATACCAGCATCGTCTTGATGCCCTTGGAAGTCTCGGCGC
modifications: expressed or natural sequence
B17: RA052 (nucleic acid)
DNA: GCGCGTCCTGGATTCGCGGAAACGCGTACATCCAGCTGACGAGAGTGATACCAGCATCGTCTTGATGCCCTTGGCAGCACTTCCCAAATAGGACGAAACGCGC
modifications: expressed or natural sequence
B18: RA053 (nucleic acid)
DNA: GCGCGTCCTGGATTCGCGGAAACGCGTACATCCAGAGTGATACCAGCATCGTCTTGATGCCCTTGGCAGCACTCTGACGAGTCCCAAATAGGACGAAACGCGC
modifications: expressed or natural sequence
B19: RA054 (nucleic acid)
DNA: GAGTGATACCAGCATCGTCTTGATGCCCTTGGCAGCACTCGCGTCCTGGATTCGCGGAAACGCGTACATCCAGCTGACGAGTCCCAAATAGGACGAAACGCGC
modifications: expressed or natural sequence
B20: RA055 (nucleic acid)
DNA: GCGCGTCCTGGATTCGCGGCGAGAATACCAGCATCGTCTTGATGCCCTTGGAAGTCTCGAAACGCGTACATCCAGCTGACGAGTCCCAAATAGGACGAAACGCGC
modifications: expressed or natural sequence
B21: RA056 (nucleic acid)
DNA: GCGCGTCCTGGATTCGCGGAAACGCGTACATCCAGCTGACGAGTCCCGAGAATACCAGCATCGTCTTGATGCCCTTGGAAGTCTCAAATAGGACGAAACGCGC
modifications: expressed or natural sequence
B22: RA005 (nucleic acid)
DNA: GCGCGTCCTGGATTCGCGGAAACCGGAATACCAGCATCGTCTTGATGCCCTTGGAAGTCCGGCGCGTACATCCAGCTGACGAGTCCCAAATAGGACGAAACGCGC
modifications: expressed or natural sequence
B23: RA057 (nucleic acid)
DNA: GCGCGTCCTGGATTCGCGGAAACGCGTACATCCAGCTGACGAGTCCCAAATAGGACAGAATACCAGCATCGTCTTGATGCCCTTGGAAGTCTGAAACGCGC
modifications: expressed or natural sequence
B24: RA058 (nucleic acid)
DNA: GCGCGTCCTGGATTCGCGGAAACGCGTACATCCAGAGAATACCAGCATCGTCTTGATGCCCTTGGAAGTCTCGCTGACGAGTCCCAAATAGGACGAAACGCGC
modifications: expressed or natural sequence
B25: RA059 (nucleic acid)
DNA: GCGCGTCCTGGATTCCCGGAATACCAGCATCGTCTTGATGCCCTTGGAAGTCCGGGCGGAAACGCGTACATCCAGCTGACGAGTCCCAAATAGGACGAAACGCGC
modifications: expressed or natural sequence
B26: RA060 (nucleic acid)
DNA: GCGCGTCCTGGATTCGCGGAAACGCGTACATCCAGCTGACGAGTCCCAAATAGGACGAAACGCGGGAATACCAGCATCGTCTTGATGCCCTTGGAAGTCCC
modifications: expressed or natural sequence
B27: RA061 (nucleic acid)
DNA: GCGCGTCCTGGATTCGCGGAAACGCGTACATCCAGCTGACGAGTCCCAAATAGGACGAAACGCGCGGAATACCAGCATCGTCTTGATGCCCTTGGAAGTCC
modifications: expressed or natural sequence
B28: RA062 (nucleic acid)
DNA: GCGCGTCCTGGATTCGCGGAAACGCCCGGAATACCAGCATCGTCTTGATGCCCTTGGAAGTCCGGGTACATCCAGCTGACGAGTCCCAAATAGGACGAAACGCGC
modifications: expressed or natural sequence

System: Renilla luciferase RNA
Test: Barcoded aptazyme variant library screen: un-cleaved Renilla luciferase RNA by barcode read counts, HEK293-T cells
Assay type: cell-based
Details: un-cleaved Renilla luciferase RNA by barcode read counts; with 1 mM theophylline (ON) over without theophylline (OFF); HEK293-T cells; triplicate
Method in brief: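 Barcode sequencing of cDNA versus DNA, normalized per aptazyme, gave the un-cleaved Renilla luciferase RNA fraction and fold-change with versus without theophylline (triplicates). Library: T3H48 ribozyme with one of seven theophylline aptamer variants inserted at each position, placed in the Renilla 3′ UTR of a dual-luciferase vector.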

| Molecule | Fold change in RNA expression between the ON state and the OFF state |
| --- | --- |
| B1 | 0.4 |
| B2 | 0.4 |
| B3 | 0.4 |
| B4 | 0.4 |
| B5 | 0.3 |
| B6 | 0.3 |
| B7 | 0.3 |
| B8 | 0.3 |
| B9 | 0.2 |

Same assay, conditions: un-cleaved Renilla luciferase RNA, HEK293-T cells cultured with 1 mM theophylline (ON) over without theophylline (OFF); barcode read counts, triplicate

| Molecule | Fold change in RNA expression between the ON state and the OFF state |
| --- | --- |
| B10 | 2.0 fold |
| B11 | 5.3 fold |
| B12 | 2.0 fold |
| B13 | 2.0 fold |
| B14 | 2.0 fold |
| B15 | 2.0 fold |
| B16 | 2.0 fold |
| B17 | 2.0 fold |
| B18 | 2.0 fold |
| B19 | 2.0 fold |
| B20 | 2.0 fold |
| B21 | 2.0 fold |
| B22 | 5.2 fold |
| B23 | 2.0 fold |
| B24 | 2.0 fold |
| B25 | 1.9 fold |
| B26 | 1.9 fold |
| B27 | 1.9 fold |
| B28 | 1.9 fold |
